Values quoted from earlier work in publication PMC3577484.
Values joined by “and” are separate entries in the source; they are usually repeats but may differ in a detail not shown here. Equal values may be shown once.

Target: insulin receptor (Xenopus laevis) (UniProt Q9PVZ4)
Assay: Scatchard radioligand binding

insulin, sequence (F8WCM5 25-54): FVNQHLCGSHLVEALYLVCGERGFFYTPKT
insulin, sequence (P01308 90-110, further chain): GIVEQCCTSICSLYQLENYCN
UniProt Q9PVZ4, sequence (Q9PVZ4 759-1362): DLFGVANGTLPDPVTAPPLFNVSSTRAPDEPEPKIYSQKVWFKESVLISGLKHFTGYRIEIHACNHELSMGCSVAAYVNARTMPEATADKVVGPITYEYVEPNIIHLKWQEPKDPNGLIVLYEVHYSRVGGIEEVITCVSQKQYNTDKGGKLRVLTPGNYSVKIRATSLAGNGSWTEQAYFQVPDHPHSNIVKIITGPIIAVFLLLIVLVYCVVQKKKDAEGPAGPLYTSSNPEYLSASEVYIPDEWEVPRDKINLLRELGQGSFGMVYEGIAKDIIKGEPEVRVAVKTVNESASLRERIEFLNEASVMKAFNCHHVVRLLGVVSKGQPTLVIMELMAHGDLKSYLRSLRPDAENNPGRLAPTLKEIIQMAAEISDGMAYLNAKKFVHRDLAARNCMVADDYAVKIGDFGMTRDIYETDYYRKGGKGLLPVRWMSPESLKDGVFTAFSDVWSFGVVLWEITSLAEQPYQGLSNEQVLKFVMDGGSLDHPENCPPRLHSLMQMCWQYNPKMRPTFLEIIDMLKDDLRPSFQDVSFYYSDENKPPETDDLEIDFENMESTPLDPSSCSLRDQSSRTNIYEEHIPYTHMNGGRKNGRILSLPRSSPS

- Kd: 0.886 nM and 5.32 nM
Substance: insulin (from UniProt P01308)
